Results as given in the Immune Epitope Database (IEDB).

target: HLA-B*58:01; experiment: IEDB peptide-MHC binding, purified MHC/direct/fluorescence; filed as Kd, often an IC50 or EC50 that approximates it; ≥ and ≤ were set here for values at or beyond the usual limits of such assays; conditions: source organism: Yellow fever virus

| Sequence | Kd [nM] |
| --- | --- |
| KSAHGSPTF | 36 |
| LAVMGDAAW | 3 |
| KTWGKNLVF | 19 |
| KIMKVVNRW | 37 |
| ESWIVDRQW | 123 |
| ITAHLKRLW | 46 |
| ISYIMLIFF | 1050 |
| KTNDRKWCF | 58 |
| RQLQKIERW | 67 |

same assay, conditions: source organism: dengue virus type 2

| Sequence | Kd [nM] |
| --- | --- |
| ITAAAWYLW | 46 |
| ICSAVPSHW | 394 |

same assay, conditions: source organism: dengue virus type 3

| Sequence | Kd [nM] |
| --- | --- |
| ICSAVPVHW | 76 |
| VSGKLIHEW | 32 |

same assay, conditions: source organism: dengue virus type 4

| Sequence | Kd [nM] |
| --- | --- |
| KAYAQMWSL | 10 |
| STMPLVMAW | 3 |

target: HLA-A*03:01; experiment: as above; conditions: source organism: Yellow fever virus

| Sequence | Kd [nM] |
| --- | --- |
| VMYNLWKMK | 4 |
| ALNTITNLK | 245 |
| GTHPFSRIR | 859 |
| VLWDIPTPK | 14 |
| RSHAAIGAY | 313 |
| VLDCRTAFK | 75 |
| TINAVASRK | 129 |
| KTHESHLVR | 678 |
| RVDGLELKK | 203 |
| KTALTGAMR | 147 |
| KVVNRWLFR | 218 |

same assay, conditions: source organism: dengue virus type 1

| Sequence | Kd [nM] |
| --- | --- |
| SSADLSLEK | 85 |
| AVSMANIFR | 52 |
| SSMVNGVVR | ≥ 20000 |

same assay, conditions: source organism: dengue virus type 2

| Sequence | Kd [nM] |
| --- | --- |
| KTFVDLMRR | 80 |
| TVNPIVTEK | 40 |

same assay, conditions: source organism: dengue virus type 3

| Sequence | Kd [nM] |
| --- | --- |
| KTFDTEYQK | 198 |
| SYYCAGLKK | 2130 |
| TVMDIISRK | 30 |

same assay, conditions: source organism: dengue virus type 4

| Sequence | Kd [nM] |
| --- | --- |
| VVTLIPLCR | 9040 |
| KVASAGISY | 85 |
| ATYGWNLVK | 3 |
| KTFVELMRR | 45 |

target: HLA-A*26:01; experiment: as above; conditions: source organism: Yellow fever virus

| Sequence | Kd [nM] |
| --- | --- |
| EAMDTISVF | 7 |
| FLILGMLLM | ≥ 20000 |
| YTIDCDGSI | 251 |
| EISGSSARY | 3 |
| SSHNHIPGY | 136 |
| FCVKVLAPY | 427 |
| ETACLSKAY | 8 |
| TAVDFGNSY | 8 |
| LVLAVGPAY | 5120 |
| GTGDSRLTY | ≥ 20000 |
| EVDQTKIQY | 3680 |
| EAPEMPALY | 594 |
| YVIRDLAAM | ≤ 1 |

same assay, conditions: source organism: dengue virus type 1

| Sequence | Kd [nM] |
| --- | --- |
| SVKKDLISY | 31 |
| EVHTWTEQY | 2 |

same assay, conditions: source organism: dengue virus type 2

| Sequence | Kd [nM] |
| --- | --- |
| EYTDYMPSM | 1820 |
| ETLETLLLL | 347 |
| DVVPMVTQM | 2 |

same assay, conditions: source organism: dengue virus type 4

| Sequence | Kd [nM] |
| --- | --- |
| FCIKVLNPY | ≥ 20000 |
| NVHTWTEQY | 39 |
| TTRHRKPTY | ≥ 20000 |
| FTTNIWMKF | 117 |

target: HLA-A*24:03; experiment: as above; conditions: source organism: Yellow fever virus

| Sequence | Kd [nM] |
| --- | --- |
| AFHGLDVKF | 14 |
| VYMDAVFEY | 253 |
| IHTVFGSAF | 373 |
| WFYDNDNPY | 5100 |
| VMGDAAWDF | 303 |
| WLGARYLEF | 35 |
| YYAFVGVMY | 5 |
| MYMALIAAF | 9 |
| RWFVRNPFF | 17 |
| IFFFLFNIL | 19 |
| MWHVTRGAF | 32 |
| LVGAAIHPF | 575 |
| MAGCGYLMF | 13 |

same assay, conditions: source organism: dengue virus type 1

| Sequence | Kd [nM] |
| --- | --- |
| GFMNEDHWF | 17 |
| WYMWLGARF | 19 |

same assay, conditions: source organism: dengue virus type 2

| Sequence | Kd [nM] |
| --- | --- |
| GFLNEDHWF | 34 |
| WYGMEIRPL | 119 |

same assay, conditions: source organism: dengue virus type 3

| Sequence | Kd [nM] |
| --- | --- |
| WHDWQQVPF | 170 |

target: HLA-B*35:01; experiment: as above; conditions: source organism: Yellow fever virus

| Sequence | Kd [nM] |
| --- | --- |
| EAMDTISVF | ≤ 1 |
| WFYDNDNPY | ≤ 1 |
| LAVMGDAAW | ≤ 1 |
| HSEEGSRAY | 3 |
| MNNGGDAMY | 46 |
| FCVKVLAPY | 10 |
| ETACLSKAY | 288 |
| TAVDFGNSY | ≤ 1 |
| LVLAVGPAY | ≤ 1 |
| YVIRDLAAM | ≤ 1 |
| MYMALIAAF | 207 |
| VLIEVNPPF | 39 |
| LVGAAIHPF | 29 |
| MAGCGYLMF | 2 |

same assay, conditions: source organism: dengue virus type 1

| Sequence | Kd [nM] |
| --- | --- |
| YLAGAGLAF | 4 |

same assay, conditions: source organism: dengue virus type 2

| Sequence | Kd [nM] |
| --- | --- |
| YAQMWSLMY | ≤ 1 |
| MANIFRGSY | 829 |

target: HLA-B*15:01; experiment: as above; conditions: source organism: Yellow fever virus

| Sequence | Kd [nM] |
| --- | --- |
| GMMGGLWKY | 32 |
| RTWHYCGSY | 68 |
| SIQDNQVAY | 217 |
| AQAVMEMTY | 56 |
| VLIEVNPPF | 69 |
| SQEAEFTGY | 94 |

same assay, conditions: source organism: dengue virus type 1

| Sequence | Kd [nM] |
| --- | --- |
| KLEGKIVQY | 126 |
| GMGEAAAIF | 29 |
| YLAGAGLAF | 11 |
| SQHNYRPGY | 22 |

same assay, conditions: source organism: dengue virus type 2

| Sequence | Kd [nM] |
| --- | --- |
| KLQLKGMSY | 111 |
| TLYAVATTF | 133 |

same assay, conditions: source organism: dengue virus type 3

| Sequence | Kd [nM] |
| --- | --- |
| KQIANELNY | 113 |

same assay, conditions: source organism: dengue virus type 4

| Sequence | Kd [nM] |
| --- | --- |
| AQEDDQYVF | 81 |

target: HLA-B*27:05; experiment: as above; conditions: source organism: Yellow fever virus

| Sequence | Kd [nM] |
| --- | --- |
| SRLTYQWHK | 16 |
| KRVVASLMR | 107 |
